Data on 1 substance can be found in paper PMC5399792.

By Km is commonly meant the substrate concentration at which the rate is half of its maximum.

For the data set, the system named is Nc1nc2c(ncn2[C@@H]2O[C@H](COP(=O)(O)O[C@H]3[C@@H](O)[C@H](n4cnc5c(N)ncnc54)O[C@@H]3CO)[C@@H](O)[C@H]2O)c(=O)[nH]1. Nature of the data set: purified protein, by the assay type. The conditions noted are these: pH 7.4; 24.0 °C.

Consider “influenza B polymerase initiating RNA synthesis at the vRNA promoter (vPol) (Influenza B virus (B/Memphis/13/2003))”, for which the Km amounted to 58 ± 18 µM.
